Where a chain is given by its changes, count along the chain named.
T1: IL-11-mFc ligand protein (human, UniProt P20809 22-199)
T1 construct: The construct is not described; also called IL-11 ligand protein; not shown: mFc part (detected with goat anti-mouse IgG)
T1 sequence (looked up): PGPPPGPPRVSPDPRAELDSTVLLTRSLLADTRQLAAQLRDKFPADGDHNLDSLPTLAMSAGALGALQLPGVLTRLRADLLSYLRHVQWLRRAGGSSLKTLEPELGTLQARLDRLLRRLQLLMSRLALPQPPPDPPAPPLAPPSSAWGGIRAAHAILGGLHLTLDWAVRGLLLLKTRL

T2: IL-11-Fc antigen (human, UniProt P20809 22-199, limits assumed)
T2 construct: The construct is not described; not shown: Fc part
T2 sequence (looked up): T1 sequence (looked up)

T3: human IL-11 (human, UniProt P20809 22-199, limits assumed)
T3 construct: also called IL-11 antigen; IL-11 protein
T3 sequence (looked up): T1 sequence (looked up)

T4: mouse IL-11 (mouse, UniProt P47873 22-199, limits assumed)
T4 construct: Bought reagent; also called IL-11 (Mouse)
T4 sequence (looked up): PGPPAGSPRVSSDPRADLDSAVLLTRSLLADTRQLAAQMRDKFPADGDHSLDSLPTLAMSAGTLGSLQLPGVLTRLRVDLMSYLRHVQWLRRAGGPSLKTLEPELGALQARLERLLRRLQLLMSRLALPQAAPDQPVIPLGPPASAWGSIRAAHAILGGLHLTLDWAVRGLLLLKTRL

T5: rat IL-11 (rat, UniProt Q99MF5 22-199, limits assumed)
T5 construct: Bought reagent; also called IL-11 (Rat)
T5 sequence (looked up): T4 sequence (looked up) with S50N, L84F, G94A, V137A, I138V

T6: cynomolgus monkey IL-11 (cynomolgus monkey, UniProt P20808 22-199, limits assumed)
T6 construct: Bought reagent; also called IL-11 (Cynomolgus)
T6 sequence (looked up): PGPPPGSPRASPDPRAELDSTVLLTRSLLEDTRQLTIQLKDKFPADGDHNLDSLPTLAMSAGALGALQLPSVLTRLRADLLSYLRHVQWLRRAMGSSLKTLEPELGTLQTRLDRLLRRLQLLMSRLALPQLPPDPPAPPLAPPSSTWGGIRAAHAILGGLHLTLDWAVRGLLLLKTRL

B1: humanized antibody molecule HA-I-C (antibody, human IgG1, kappa, L234A L235A, V domains shown)
VH: QVQLVESGGGLVKPGGSLRLSCAASGFTFSDYYMFWVRQAPGKGLEWVATISDGGTYTYYPDSVKGRFTISRDNAKNSLYLQMNSLRAEDTAVYYCARDGGYVSSPEAMDYWGQGTLVTVSS
VL: DIVLTQSPSSLSASVGDRVTITCRASQDISNYLNWYQQKPGKAVKLLIYYTSRLHSGVPSRFSGSGSGTDYTFTISSLQPEDIATYFCQQGNTLPPTFGGGTKVEIKR
B2: humanized antibody molecule HA-I-A (antibody, human IgG1, kappa, L234A L235A, V domains shown)
VH: B1 VH
VL: B1 VL with V44P, Y71F, F87Y
notes: anti-IL-11 monoclonal antibody HA-I-A
B3: humanized antibody molecule HA-I-D (antibody, human IgG1, kappa, L234A L235A, V domains shown)
VH: B1 VH with V93M, L117S
VL: B1 VL with K42G
B4: humanized antibody molecule HA-I-B (antibody, human IgG1, kappa, L234A L235A, V domains shown)
VH: B1 VH with A49S
VL: B1 VL with V44P, F87Y
B5: murine antibody molecule MA-III (mouse IgG1 / mouse Ckappa) (antibody, V domains shown)
VH: EVKLEQSGAEVVKPGALVKMSCKASGYTFTSYWMHWVKQRPGQGLEWIGVIDPSDSYTTYNQKFKGKATLTVDTSSSTGYMQLSSLTSEDSAVYYCSQYGYDVNWYFDVWGAGTTVTVSS
VL: DIVMTQTTLSLPVSLGDQASISCRSSQSIVHSNGNTYLEWYLQKPGQSPKLLIYEVSNRFSGVPDRFSGSGSGTDFTLKISRVEAEDLGVYYCFQGSHVPWTFGGGTKLEIKA
notes: also called murine anti-IL-11 monoclonal antibody MA-III
B6: murine antibody molecule MA-I (mouse IgG1 / mouse Ckappa) (antibody)
heavy: EVKLEESGGGLVKPGGSLKLSCAASGFTFSDYYMFWVRQTPEKRLEWVATISDGGTYTYYPDSVKGRFTISRDNAKNNLYLQMTSLKSEDTAMYYCARDGGYVSSPEAMDYWGQGTSVTVSSAKTTPPSVYPLAPGSAAQTNSMVTLGCLVKGYFPEPVTVTWNSGSLSSGVHTFPAVLQSDLYTLSSSVTVPSSTWPSETVTCNVAHPASSTKVDKKIVPRDCGCKPCICTVPEVSSVFIFPPKPKDVLTITLTPKVTCVVVDISKDDPEVQFSWFVDDVEVHTAQTQPREEQFNSTFRSVSELPIMHQDWLNGKEFKCRVNSAAFPAPIEKTISKTKGRPKAPQVYTIPPPKEQMAKDKVSLTCMITDFFPEDITVEWQWNGQPAENYKNTQPIMDTDGSYFVYSKLNVQKSNWEAGNTFTCSVLHEGLHNHHTEKSLSHSPG
light: DIVLTQSTSSLSASLGDRVTISCRASQDISNYLNWYQQKPDGTVKLLIYYTSRLHSGVPSRFSGSGSGTDYSLTISNLEQEDIATYFCQQGNTLPPTFGGGTKLEIKADAAPTVSIFPPSSEQLTSGGASVVCFLNNFYPKDINVKWKIDGSERQNGVLNSWTDQDSKDSTYSMSSTLTLTKDEYERHNSYTCEATHKTSTSPIVKSFNRNEC
notes: also called murine anti-IL-11 monoclonal antibody MA-I
B7: murine antibody molecule MA-IV (mouse IgG1 / mouse Ckappa) (antibody, V domains shown)
VH: EVQLEESGGGLVKPGGSLKLSCVASGFTFSDYYMFWVRQTPEKRLEWVATISDGGSYSYYPDSVKGRFTISRDNAKNNLYLQMSSLRSEDTAMYYCARDGGYISSPEAMDYWGQGTSVTVSS
VL: DIVLTQSTSSLSASLGDRVTISCRASQDISNYLNWYQQKPDGTVKLLIYYTSRLHSGVPSRFSGSGSGTDYSLTISNLEQEDIATYFCQQGNTLPPTFGGGTKLEIKA
notes: also called murine anti-IL-11 monoclonal antibody MA-IV
B8: murine antibody molecule MA-II (mouse IgG1 / mouse Ckappa) (antibody)
heavy: B6 heavy
light: B6 light with P96W
notes: also called murine anti-IL-11 monoclonal antibody MA-II
B9: humanized antibody molecule HA-II-B (antibody, human IgG1, kappa, L234A L235A, V domains shown)
VH: B1 VH
VL: B1 VL with V44P, F87Y, P96W
B10: humanized antibody molecule HA-II-C (antibody, human IgG1, kappa, L234A L235A, V domains shown)
VH: B1 VH with A49S
VL: B1 VL with V44P, F87Y, P96W
B11: humanized antibody molecule HA-II-D (antibody, human IgG1, kappa, L234A L235A, V domains shown)
VH: B1 VH with V93M, L117S
VL: B1 VL with K42G, A43T, P96W
B12: humanized antibody molecule HA-II-A (antibody, human IgG1, kappa, L234A L235A, V domains shown)
VH: B1 VH
VL: B1 VL with V44P, Y71F, F87Y, P96W
B13: chimeric antibody CA-I (antibody, human IgG1, kappa, L234A L235A)
heavy: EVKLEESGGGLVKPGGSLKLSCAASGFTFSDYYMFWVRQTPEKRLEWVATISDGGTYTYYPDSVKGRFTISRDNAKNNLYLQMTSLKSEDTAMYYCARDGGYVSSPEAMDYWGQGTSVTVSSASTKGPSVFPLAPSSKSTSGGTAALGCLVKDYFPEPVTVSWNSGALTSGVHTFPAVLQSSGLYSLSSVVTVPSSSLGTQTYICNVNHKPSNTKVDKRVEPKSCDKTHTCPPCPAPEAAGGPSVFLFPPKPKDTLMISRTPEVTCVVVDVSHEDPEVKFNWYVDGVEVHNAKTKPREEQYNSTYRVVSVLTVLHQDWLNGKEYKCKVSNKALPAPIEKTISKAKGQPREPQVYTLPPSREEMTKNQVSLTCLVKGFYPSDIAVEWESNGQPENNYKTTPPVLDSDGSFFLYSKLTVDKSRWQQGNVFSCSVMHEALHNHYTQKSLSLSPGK
light: DIVLTQSTSSLSASLGDRVTISCRASQDISNYLNWYQQKPDGTVKLLIYYTSRLHSGVPSRFSGSGSGTDYSLTISNLEQEDIATYFCQQGNTLPPTFGGGTKLEIKRTVAAPSVFIFPPSDEQLKSGTASVVCLLNNFYPREAKVQWKVDNALQSGNSQESVTEQDSKDSTYSLSSTLTLSKADYEKHKVYACEVTHQGLSSPVTKSFNRGEC
notes: Variable regions of MA-I on human IgG1 and human Ckappa constant regions
B14: chimeric antibody CA-II (antibody, human IgG1, kappa, L234A L235A)
heavy: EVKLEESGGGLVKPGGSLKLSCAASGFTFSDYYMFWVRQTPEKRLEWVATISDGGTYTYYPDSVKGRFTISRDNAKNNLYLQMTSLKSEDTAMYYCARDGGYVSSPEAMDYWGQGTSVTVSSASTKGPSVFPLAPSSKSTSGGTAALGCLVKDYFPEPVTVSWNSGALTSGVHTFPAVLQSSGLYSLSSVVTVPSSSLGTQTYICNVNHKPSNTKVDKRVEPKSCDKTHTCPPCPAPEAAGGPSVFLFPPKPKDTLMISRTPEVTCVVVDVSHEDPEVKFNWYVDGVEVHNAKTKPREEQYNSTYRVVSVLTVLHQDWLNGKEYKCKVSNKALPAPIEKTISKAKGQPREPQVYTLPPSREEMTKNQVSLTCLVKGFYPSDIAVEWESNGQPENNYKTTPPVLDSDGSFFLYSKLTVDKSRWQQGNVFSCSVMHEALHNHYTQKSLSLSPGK
light: B13 light with P96W
notes: Variable regions of MA-II on human IgG1 and human Ckappa constant regions

What follows are binders tested against T1, IL-11-mFc ligand protein (assay: flow cytometry: inhibition of IL-11-mFc binding to IL-11RA on BaF/3-IL-11RA cells, goat anti-mouse IgG-FITC detection).

Row | IC50 [µg/mL] | Binder
1 | 4.87 | B1
2 | 1.68 | B2
3 | 13.8 | B3
4 | 3.58 | B4

What follows are binders tested against T2, IL-11-Fc antigen (assay: competition ELISA: IL-11-Fc coated, competitor IL-11RA-Fc (IgG4 type) at 0.5 ug/mL, anti-human IgG4-HRP detection).

Row | IC50 [µg/mL] | Binder
5 | 0.421 | B5
6 | 0.331 | B6
7 | 0.778 | B7
8 | 0.378 | B8

Target: T1, IL-11-mFc ligand protein
Assay: flow cytometry: inhibition of IL-11-mFc binding to IL-11RA on BaF/3-IL-11RA cells, goat anti-mouse IgG-FITC detection
Remark: another data set of the same source

Row | IC50 [µg/mL] | Binder
9 | 19.1 | B5
10 | 3.3 | B6
11 | 59.1 | B7
12 | 11.1 | B8

The binders below were run against T1, IL-11-mFc ligand protein (assay: cell-based or functional assay).

Row | IC50 of inhibition of TIMP-1 secretion by MRC-5 cells stimulated with IL-11-mFc [µg/mL] | Binder
13 | 1.36 | B5
14 | 0.453 | B6
15 | 4.6 | B7
16 | 0.475 | B8

The binders below were run against T3, human IL-11 (assay: ELISA, IL-11 coated, goat anti-human IgG Fab HRP detection).

Row | EC50 [µg/mL] | Binder
17 | 0.0252 | B1
18 | 0.0883 | B9
19 | 0.0849 | B10
20 | 0.0204 | B2
21 | 0.0261 | B3
22 | 0.0585 | B11
23 | 0.102 | B12
24 | 0.0232 | B4
25 | 0.0226 | B13
26 | 0.0464 | B14

These binders were tested against T3, human IL-11 (assay: ELISA, human IL-11 coated, goat anti-human IgG Fab HRP detection).

Row | EC50 [µg/mL] | Binder
27 | 0.0106 | B2

Each binder was assayed against T4, mouse IL-11 (assay: ELISA, mouse IL-11 coated, goat anti-human IgG Fab HRP detection).

Row | EC50 [µg/mL] | Binder
28 | 0.0139 | B2

Target: T1, IL-11-mFc ligand protein
Assay: cell-based or functional assay
Remark: another data set of the same source

Row | IC50 of inhibition of TIMP-1 secretion by MRC-5 cells stimulated with IL-11-mFc [µg/mL] | Binder
29 | 0.343 | B1
30 | 0.101 | B2
31 | 0.657 | B3
32 | 0.19 | B4

Each binder was assayed against T5, rat IL-11 (assay: ELISA, rat IL-11 coated, goat anti-human IgG Fab HRP detection).

Row | EC50 [µg/mL] | Binder
33 | 0.0179 | B2

The binders below were run against T6, cynomolgus monkey IL-11 (assay: ELISA, cynomolgus monkey IL-11 coated, goat anti-human IgG Fab HRP detection).

Row | EC50 [µg/mL] | Binder
34 | 0.239 | B2

These binders were tested against T1, IL-11-mFc ligand protein (assay: flow cytometry: inhibition of IL-11-mFc binding to GP130 on BaF/3-GP130 cells, goat anti-mouse IgG-FITC detection).

Row | IC50 [µg/mL] | Binder
35 | 46.2 | B1
36 | 23.5 | B2
37 | 128 | B3
38 | 39.6 | B4

The binders below were run against T3, human IL-11 (assay: cell-based or functional assay).

Row | IC50, reporter gene (BaF/3-GP130-STAT3-Luc cells stimulated with IL-11 protein, luciferase) [µg/mL] | Binder
39 | 0.152 | B1
40 | 0.045 | B2
41 | 0.465 | B3
42 | 0.103 | B4

Each binder was assayed against T3, human IL-11 (assay: ELISA, IL-11 coated, goat anti-mouse IgG-HRP detection).

Row | EC50 [µg/mL] | Binder
43 | 0.00379 | B5
44 | 0.00341 | B6
45 | 0.00425 | B7
46 | 0.00372 | B8

— patent EP4722243A1 (Beijing Dongfang Biotech Co. Ltd., dated 2026)
